In US20050186203A1 (published 2005):

Assays:
[1] = target: T1, purified full-length human IGF-I receptor (affinity purified); directly coated or biotinylated and captured on … (human, UniProt P08069 31-1367, biotinylated with PEO-maleimide-biotin reagent in the captured format); assay: ELISA binding competition with murine EM164 on full-length IGF-I receptor
T1 construct: mature; also called purified human IGF-I receptor; biotinylated human IGF-I receptor
Experimental: (§1) After equilibration, the bound humanized antibody was detected using a goat-anti-human-Fab′₂-antibody-horseradish peroxidase conjugate. Plots of ([bound murine Ab]/[bound humanized Ab]) vs ([murine Ab]/[humanized Ab]), which theoretically yield a straight line with slope=(K_{d humanized Ab}/K_{d murine Ab}), were used to determine the relative affinities of the humanized and murine antibodies.
(§2) An Immulon-2HB ELISA plate was coated with 100 μL of 5 μg/mL streptavidin per well in carbonate buffer at ambient temperature for 7 h. […] The wells were then washed with TBS-T buffer and incubated with goat-anti-human-Fab′₂-antibody-horseradish peroxidase conjugate for 1 h (100 μL; 1 μg/mL in blocking buffer), followed by washes and detection using ABTS/H₂O₂ substrate at 405 nm.

[2] = target: T1, purified full-length human IGF-I …; assay: ELISA binding competition with murine EM164 on captured biotinylated IGF-I receptor
Experimental: as §1, §2

[3] = target: IGF-I receptor of 3T3 cells (mouse) (mouse, UniProt Q60751 31-1373); assay: immunoprecipitation from cell lysate, Western blot
[4] = target: T2, human insulin receptor, overexpressed on 3T3-like cells of IGF-I receptor deficient mice (human, UniProt P06213 28-1382); assay: FACS on cells overexpressing human insulin receptor
T2 construct: whole, on cells; also called insulin receptor overexpressing cells
Experimental: The cells were pelleted by centrifugation and washed with cold FACS buffer by gentle flicking, followed by incubation with goat-anti-mouse-IgG-antibody-FITC conjugate (100 μL; 10 μg/mL in FACS buffer) on ice for 1 h. The cells were pelleted, washed, and resuspended in 120 μL of 1% formaldehyde solution in PBS. The plate was analyzed using a FACSCalibur reader (BD Biosciences).

Chain of IGF-I receptor of 3T3 cells (mouse) (Q60751 31-1373 limits assumed): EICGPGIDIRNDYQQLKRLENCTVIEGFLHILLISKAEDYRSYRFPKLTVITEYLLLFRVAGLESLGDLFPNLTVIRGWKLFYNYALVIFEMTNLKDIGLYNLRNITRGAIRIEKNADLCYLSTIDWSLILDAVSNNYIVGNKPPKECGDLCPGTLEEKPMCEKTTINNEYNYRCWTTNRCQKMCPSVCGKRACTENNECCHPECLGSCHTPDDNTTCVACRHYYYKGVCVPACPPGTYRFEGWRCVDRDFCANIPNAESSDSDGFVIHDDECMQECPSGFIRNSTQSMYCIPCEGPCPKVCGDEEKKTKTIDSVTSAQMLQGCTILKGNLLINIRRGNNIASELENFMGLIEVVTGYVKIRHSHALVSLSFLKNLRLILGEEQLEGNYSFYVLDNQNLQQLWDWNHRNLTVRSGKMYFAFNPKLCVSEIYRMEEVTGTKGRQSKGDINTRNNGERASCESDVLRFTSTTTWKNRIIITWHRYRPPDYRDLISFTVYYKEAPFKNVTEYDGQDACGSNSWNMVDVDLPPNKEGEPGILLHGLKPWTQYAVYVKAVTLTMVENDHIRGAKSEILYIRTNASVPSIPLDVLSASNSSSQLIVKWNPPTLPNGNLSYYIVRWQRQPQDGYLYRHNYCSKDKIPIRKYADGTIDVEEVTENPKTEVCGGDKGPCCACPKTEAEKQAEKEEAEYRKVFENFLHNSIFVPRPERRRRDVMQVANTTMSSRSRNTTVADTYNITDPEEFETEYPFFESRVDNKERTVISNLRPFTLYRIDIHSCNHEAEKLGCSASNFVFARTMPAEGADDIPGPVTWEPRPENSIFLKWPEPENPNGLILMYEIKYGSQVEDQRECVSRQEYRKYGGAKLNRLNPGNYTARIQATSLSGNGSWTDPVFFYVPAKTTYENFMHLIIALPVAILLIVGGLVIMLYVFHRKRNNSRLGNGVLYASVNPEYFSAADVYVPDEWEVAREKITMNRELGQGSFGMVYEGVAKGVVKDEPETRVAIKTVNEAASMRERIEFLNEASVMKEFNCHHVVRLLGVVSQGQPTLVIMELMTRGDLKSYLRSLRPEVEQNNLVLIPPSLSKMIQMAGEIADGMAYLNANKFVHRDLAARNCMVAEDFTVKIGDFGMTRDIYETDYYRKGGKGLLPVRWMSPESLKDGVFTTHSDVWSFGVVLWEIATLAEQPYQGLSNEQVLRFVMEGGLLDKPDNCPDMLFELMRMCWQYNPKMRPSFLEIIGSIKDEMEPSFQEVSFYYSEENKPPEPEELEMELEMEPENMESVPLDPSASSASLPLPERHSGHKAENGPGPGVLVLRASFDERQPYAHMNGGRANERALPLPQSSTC

B1: humanized EM164 antibody version 1.1 (antibody, V domains shown)
VH: QVQLVQSGAEVVKPGASVKLSCKASGYTFTSYWMHWVKQRPGQGLEWIGEINPSNGRTNYNQKFQGKATLTVDKSSSTAYMQLSSLTSEDSAVYYFARGRPDYYGSSKWYFDVWGQGTTVTVS
VL: DVLMTQTPLSLPVSLGDPASISCRSSQSIVHSNVNTYLEWYLQKPGQSPKLLIYKVSNRFSGVPDRFSGSGAGTDFTLRISRVEAEDLGIYYCFQGSHVPPTFGGGTKLEIKR
notes: Expressed transiently in 293T cells; also called huEM164 V1.1; v1.1
Does B1 bind [1]?
Result: binds

B2: humanized EM164 antibody version 1.2 (antibody, V domains shown)
VH: QVQLVQSGAEVVKPGASVKLSCKASGYTFTSYWMHWVKQRPGQGLEWIGEINPSNGRTNYNQKFQGKATLTVDKSSSTAYMQLSSLTSEDSAVYYFARGRPDYYGSSKWYFDVWGQGTTVTVS
VL: DVLMTQTPLSLPVSLGDPASISCRSSQSIVHSNVNTYLEWYLQKPGQSPRLLIYKVSNRFSGVPDRFSGSGAGTDFTLRISRVEAEDLGIYYCFQGSHVPPTFGGGTKLEIKR
notes: Expressed transiently in 293T cells; also called huEM164 V1.2; v1.2
Does B2 bind [1]?
Result: binds

B3: humanized EM164 antibody version 1.0 (antibody, V domains shown)
VH: QVQLVQSGAEVVKPGASVKLSCKASGYTFTSYWMHWVKQRPGQGLEWIGEINPSNGRTNYNQKFQGKATLTVDKSSSTAYMQLSSLTSEDSAVYYFARGRPDYYGSSKWYFDVWGQGTTVTVS
VL: DVVMTQTPLSLPVSLGDPASISCRSSQSIVHSNVNTYLEWYLQKPGQSPRLLIYKVSNRFSGVPDRFSGSGAGTDFTLRISRVEAEDLGIYYCFQGSHVPPTFGGGTKLEIKR
notes: Expressed transiently in 293T cells; also called huEM164 V1.0; huEM164 v1.0
Does B3 bind [2]?
Result: binds

B4: murine anti-IGF-I receptor antibody EM164 (antibody, V domains shown)
VH: QVQLQQSGAELVKPGASVKLSCKASGYTFTSYWMHWVKQRPGQGLEWIGEINPSNGRTNYNEKFKRKATLTVDKSSSTAYMQLSSLTSEDSAVYYFARGRPDYYGSSKWYFDVWGAGTTVTVS
VL: DVLMTQTPLSLPVSLGDQASISCRSSQSIVHSNVNTYLEWYLQKPGQSPKLLIYKVSNRFSGVPDRFSGSGSGTDFTLRISRVEAEDLGIYYCFQGSHVPPTFGGGTKLEIKR
notes: also called EM164 antibody; muEM164
Which results are given for B4?
binding result [3]: no binding; binding result [4]: no binding (tested: 50-100 nM)
